# Data taken from patent US20210388087A1 (Chugai, published 2021).
# B1: CE115HA000 W33F (antibody, human IgG1, kappa, L234A L235A, N297A, name in Kabat numbering)
# heavy: QVQLVESGGGVVQPGRSLRLSCAASGFTFSNAFMHWVRQAPGKGLEWVAQIKAKSNNYATYYAESVKGRFTISRDDSKNSLYLQMNSLKTEDTAVYYCRYVHYGAYYGVDAWGQGTTVTVSSASTKGPSVFPLAPSSKSTSGGTAALGCLVKDYFPEPVTVSWNSGALTSGVHTFPAVLQSSGLYSLSSVVTVPSSSLGTQTYICNVNHKPSNTKVDKKVEPKSCDKTHTCPPCPAPEAAGGPSVFLFPPKPKDTLMISRTPEVTCVVVDVSHEDPEVKFNWYVDGVEVHNAKTKPREEQYASTYRVVSVLTVLHQDWLNGKEYKCKVSNKALPAPIEKTISKAKGQPREPQVYTLPPSRCELTKNQVSLSCAVKGFYPSDIAVEWESNGQPENNYKTTPPVLDSDGSFFLVSKLTVDKSRWQQGNVFSCSVMHEALHNHYTQKSLSLSPDYKDDDDK
# chain: EPKSSDKTHTCPPCPAPELLGGPSVFLFPPKPKDTLMISRTPEVTCVVVDVSHEDPEVKFNWYVDGVEVHNAKTKPREEQYNSTYRVVSVLTVLHQDWLNGKEYKCKVSNKALPAPIEKTISKAKGQPREPQVCTLPPSRDELTKNQVSLWCLVKGFYPSDIAVEWESNGQPENNYKTTPPVLDSDGSFFLYSKLTVDKSRWQQGNVFSCSVMHEALHNRYTQKSLSLSP
# light: DIVMTQSPLSLPVTPGEPASISCRSSQSLVHSNRNTYLHWYQQKPGQAPRLLIYKVSNRFSGVPDRFSGSGSGTDFTLKISRVEAEDVGVYYCGQGTQVPYTFGQGTKLEIKRTVAAPSVFIFPPSDEQLKSGTASVVCLLNNFYPREAKVQWKVDNALQSGNSQESVTEQDSKDSTYSLSSTLTLSKADYEKHKVYACEVTHQGLSSPVTKSFNRGEC
# notes: one-arm antibody
# B2: CE115HA000 Y55D (antibody, human IgG1, kappa, L234A L235A, N297A, name in Kabat numbering)
# heavy: QVQLVESGGGVVQPGRSLRLSCAASGFTFSNAWMHWVRQAPGKGLEWVAQIKAKSNNDATYYAESVKGRFTISRDDSKNSLYLQMNSLKTEDTAVYYCRYVHYGAYYGVDAWGQGTTVTVSSASTKGPSVFPLAPSSKSTSGGTAALGCLVKDYFPEPVTVSWNSGALTSGVHTFPAVLQSSGLYSLSSVVTVPSSSLGTQTYICNVNHKPSNTKVDKKVEPKSCDKTHTCPPCPAPEAAGGPSVFLFPPKPKDTLMISRTPEVTCVVVDVSHEDPEVKFNWYVDGVEVHNAKTKPREEQYASTYRVVSVLTVLHQDWLNGKEYKCKVSNKALPAPIEKTISKAKGQPREPQVYTLPPSRCELTKNQVSLSCAVKGFYPSDIAVEWESNGQPENNYKTTPPVLDSDGSFFLVSKLTVDKSRWQQGNVFSCSVMHEALHNHYTQKSLSLSPDYKDDDDK
# chain: EPKSSDKTHTCPPCPAPELLGGPSVFLFPPKPKDTLMISRTPEVTCVVVDVSHEDPEVKFNWYVDGVEVHNAKTKPREEQYNSTYRVVSVLTVLHQDWLNGKEYKCKVSNKALPAPIEKTISKAKGQPREPQVCTLPPSRDELTKNQVSLWCLVKGFYPSDIAVEWESNGQPENNYKTTPPVLDSDGSFFLYSKLTVDKSRWQQGNVFSCSVMHEALHNRYTQKSLSLSP
# light: DIVMTQSPLSLPVTPGEPASISCRSSQSLVHSNRNTYLHWYQQKPGQAPRLLIYKVSNRFSGVPDRFSGSGSGTDFTLKISRVEAEDVGVYYCGQGTQVPYTFGQGTKLEIKRTVAAPSVFIFPPSDEQLKSGTASVVCLLNNFYPREAKVQWKVDNALQSGNSQESVTEQDSKDSTYSLSSTLTLSKADYEKHKVYACEVTHQGLSSPVTKSFNRGEC
# notes: one-arm antibody
# B3: CE115HA000 W33H (antibody, human IgG1, kappa, L234A L235A, N297A, name in Kabat numbering)
# heavy: QVQLVESGGGVVQPGRSLRLSCAASGFTFSNAHMHWVRQAPGKGLEWVAQIKAKSNNYATYYAESVKGRFTISRDDSKNSLYLQMNSLKTEDTAVYYCRYVHYGAYYGVDAWGQGTTVTVSSASTKGPSVFPLAPSSKSTSGGTAALGCLVKDYFPEPVTVSWNSGALTSGVHTFPAVLQSSGLYSLSSVVTVPSSSLGTQTYICNVNHKPSNTKVDKKVEPKSCDKTHTCPPCPAPEAAGGPSVFLFPPKPKDTLMISRTPEVTCVVVDVSHEDPEVKFNWYVDGVEVHNAKTKPREEQYASTYRVVSVLTVLHQDWLNGKEYKCKVSNKALPAPIEKTISKAKGQPREPQVYTLPPSRCELTKNQVSLSCAVKGFYPSDIAVEWESNGQPENNYKTTPPVLDSDGSFFLVSKLTVDKSRWQQGNVFSCSVMHEALHNHYTQKSLSLSPDYKDDDDK
# chain: EPKSSDKTHTCPPCPAPELLGGPSVFLFPPKPKDTLMISRTPEVTCVVVDVSHEDPEVKFNWYVDGVEVHNAKTKPREEQYNSTYRVVSVLTVLHQDWLNGKEYKCKVSNKALPAPIEKTISKAKGQPREPQVCTLPPSRDELTKNQVSLWCLVKGFYPSDIAVEWESNGQPENNYKTTPPVLDSDGSFFLYSKLTVDKSRWQQGNVFSCSVMHEALHNRYTQKSLSLSP
# light: DIVMTQSPLSLPVTPGEPASISCRSSQSLVHSNRNTYLHWYQQKPGQAPRLLIYKVSNRFSGVPDRFSGSGSGTDFTLKISRVEAEDVGVYYCGQGTQVPYTFGQGTKLEIKRTVAAPSVFIFPPSDEQLKSGTASVVCLLNNFYPREAKVQWKVDNALQSGNSQESVTEQDSKDSTYSLSSTLTLSKADYEKHKVYACEVTHQGLSSPVTKSFNRGEC
# notes: one-arm antibody
# B4: CE115HA000 W33Y (antibody, human IgG1, kappa, L234A L235A, N297A, name in Kabat numbering)
# heavy: QVQLVESGGGVVQPGRSLRLSCAASGFTFSNAYMHWVRQAPGKGLEWVAQIKAKSNNYATYYAESVKGRFTISRDDSKNSLYLQMNSLKTEDTAVYYCRYVHYGAYYGVDAWGQGTTVTVSSASTKGPSVFPLAPSSKSTSGGTAALGCLVKDYFPEPVTVSWNSGALTSGVHTFPAVLQSSGLYSLSSVVTVPSSSLGTQTYICNVNHKPSNTKVDKKVEPKSCDKTHTCPPCPAPEAAGGPSVFLFPPKPKDTLMISRTPEVTCVVVDVSHEDPEVKFNWYVDGVEVHNAKTKPREEQYASTYRVVSVLTVLHQDWLNGKEYKCKVSNKALPAPIEKTISKAKGQPREPQVYTLPPSRCELTKNQVSLSCAVKGFYPSDIAVEWESNGQPENNYKTTPPVLDSDGSFFLVSKLTVDKSRWQQGNVFSCSVMHEALHNHYTQKSLSLSPDYKDDDDK
# chain: EPKSSDKTHTCPPCPAPELLGGPSVFLFPPKPKDTLMISRTPEVTCVVVDVSHEDPEVKFNWYVDGVEVHNAKTKPREEQYNSTYRVVSVLTVLHQDWLNGKEYKCKVSNKALPAPIEKTISKAKGQPREPQVCTLPPSRDELTKNQVSLWCLVKGFYPSDIAVEWESNGQPENNYKTTPPVLDSDGSFFLYSKLTVDKSRWQQGNVFSCSVMHEALHNRYTQKSLSLSP
# light: DIVMTQSPLSLPVTPGEPASISCRSSQSLVHSNRNTYLHWYQQKPGQAPRLLIYKVSNRFSGVPDRFSGSGSGTDFTLKISRVEAEDVGVYYCGQGTQVPYTFGQGTKLEIKRTVAAPSVFIFPPSDEQLKSGTASVVCLLNNFYPREAKVQWKVDNALQSGNSQESVTEQDSKDSTYSLSSTLTLSKADYEKHKVYACEVTHQGLSSPVTKSFNRGEC
# notes: one-arm antibody
# Target: T1, CD3 epsilon homodimer protein (UniProt P07766 23-126)
# T1 construct: also called CD3 (CD3 epsilon)
# Assay: SPR, CD3 epsilon homodimer on chip, one-arm antibody as analyte;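 note: surface plasmon resonance at 25 °C with CD3 epsilon homodimer amine-coupled to a CM4 sensor chip, antibody injected as analyte, HBS-EP+ as running buffer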
# T1 sequence (P07766 23-126): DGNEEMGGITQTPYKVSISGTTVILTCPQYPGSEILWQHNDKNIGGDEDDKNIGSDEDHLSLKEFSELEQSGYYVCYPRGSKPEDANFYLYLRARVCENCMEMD
row,Binder,KD ratio (KD of CE115HA000/KD of altered form)
1,B1,0.66
2,B2,0.89
3,B3,4.96
4,B4,0.69
